The values that follow come from US20230203177A1 (Bristol-Myers Squibb, published 2023).

B1: M17 (HC-wt / LC-K45Q) (antibody, human IgG1, kappa)
heavy: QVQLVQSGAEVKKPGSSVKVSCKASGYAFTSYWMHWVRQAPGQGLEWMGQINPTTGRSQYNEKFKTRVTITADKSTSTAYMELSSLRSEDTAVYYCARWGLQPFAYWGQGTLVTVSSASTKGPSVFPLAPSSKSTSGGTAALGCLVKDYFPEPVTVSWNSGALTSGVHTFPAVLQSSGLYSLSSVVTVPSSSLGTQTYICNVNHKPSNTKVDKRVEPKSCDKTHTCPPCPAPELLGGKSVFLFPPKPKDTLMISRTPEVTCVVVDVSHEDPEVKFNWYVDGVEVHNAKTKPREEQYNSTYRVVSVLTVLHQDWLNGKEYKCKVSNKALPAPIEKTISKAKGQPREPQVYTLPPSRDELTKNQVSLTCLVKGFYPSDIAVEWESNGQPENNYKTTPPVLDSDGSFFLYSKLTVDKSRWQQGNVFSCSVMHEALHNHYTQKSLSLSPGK
light: DIQMTQSPSFLSASVGDRVTITCKASQDVSTAVAWYQQKPGKAPQLLIYSASYRYTGVPSRFSGSGSGTDFTLTISSLQPEDFATYYCQQHYSTPWTFGGGTKVEIKRTVAAPSVFIFPPSDEQLKSGTASVVCLLNNFYPREAKVQWKVDNALQSGNSQESVTEQDSKDSTYSLSSTLTLSKADYEKHKVYACEVTHQGLSSPVTKSFNRGEC
notes: IgG1-P238K; also called HC1/LC2
B2: M19 (HC-K12Q,K13Q,K23Q / LC-K45Q) (antibody, human IgG1, kappa, V domains shown)
VH: QVQLVQSGAEVQQPGSSVKVSCQASGYAFTSYWMHWVRQAPGQGLEWMGQINPTTGRSQYNEKFKTRVTITADKSTSTAYMELSSLRSEDTAVYYCARWGLQPFAYWGQGTLVTVSS
VL: DIQMTQSPSFLSASVGDRVTITCKASQDVSTAVAWYQQKPGKAPQLLIYSASYRYTGVPSRFSGSGSGTDFTLTISSLQPEDFATYYCQQHYSTPWTFGGGTKVEIKR
notes: IgG1-P238K; also called HC3/LC2
B3: M18 (HC-K12Q,K13Q / LC-K45Q) (antibody, human IgG1, kappa)
heavy: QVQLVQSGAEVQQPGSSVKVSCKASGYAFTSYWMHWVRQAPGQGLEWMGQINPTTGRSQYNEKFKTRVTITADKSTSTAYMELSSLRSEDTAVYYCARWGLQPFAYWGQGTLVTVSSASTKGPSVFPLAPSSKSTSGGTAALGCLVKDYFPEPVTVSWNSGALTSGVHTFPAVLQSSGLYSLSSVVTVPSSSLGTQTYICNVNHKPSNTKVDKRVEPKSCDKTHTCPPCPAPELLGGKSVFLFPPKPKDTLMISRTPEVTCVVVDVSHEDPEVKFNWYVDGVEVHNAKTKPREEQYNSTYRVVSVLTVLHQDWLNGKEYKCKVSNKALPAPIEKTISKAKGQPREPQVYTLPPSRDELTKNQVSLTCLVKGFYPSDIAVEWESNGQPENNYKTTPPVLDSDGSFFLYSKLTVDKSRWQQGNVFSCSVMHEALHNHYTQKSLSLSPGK
light: DIQMTQSPSFLSASVGDRVTITCKASQDVSTAVAWYQQKPGKAPQLLIYSASYRYTGVPSRFSGSGSGTDFTLTISSLQPEDFATYYCQQHYSTPWTFGGGTKVEIKRTVAAPSVFIFPPSDEQLKSGTASVVCLLNNFYPREAKVQWKVDNALQSGNSQESVTEQDSKDSTYSLSSTLTLSKADYEKHKVYACEVTHQGLSSPVTKSFNRGEC
notes: IgG1-P238K; also called HC2/LC2
B4: M14 (HC-K74T / LC-wt) (antibody, human IgG1, kappa)
heavy: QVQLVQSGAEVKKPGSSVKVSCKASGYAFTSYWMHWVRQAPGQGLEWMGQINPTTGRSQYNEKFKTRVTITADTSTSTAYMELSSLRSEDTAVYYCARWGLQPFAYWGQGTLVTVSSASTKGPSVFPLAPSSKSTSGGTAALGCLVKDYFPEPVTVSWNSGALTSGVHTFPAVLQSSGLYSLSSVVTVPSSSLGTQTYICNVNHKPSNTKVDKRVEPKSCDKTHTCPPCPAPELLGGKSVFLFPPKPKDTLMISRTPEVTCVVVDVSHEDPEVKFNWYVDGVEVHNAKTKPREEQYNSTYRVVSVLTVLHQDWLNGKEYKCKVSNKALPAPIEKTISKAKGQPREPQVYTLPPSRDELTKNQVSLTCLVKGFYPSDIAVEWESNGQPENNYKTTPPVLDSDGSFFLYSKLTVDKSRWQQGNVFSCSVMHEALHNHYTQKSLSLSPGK
light: DIQMTQSPSFLSASVGDRVTITCKASQDVSTAVAWYQQKPGKAPKLLIYSASYRYTGVPSRFSGSGSGTDFTLTISSLQPEDFATYYCQQHYSTPWTFGGGTKVEIKRTVAAPSVFIFPPSDEQLKSGTASVVCLLNNFYPREAKVQWKVDNALQSGNSQESVTEQDSKDSTYSLSSTLTLSKADYEKHKVYACEVTHQGLSSPVTKSFNRGEC
notes: IgG1-P238K; also called HC14/LC1
B5: M8 (HC-R38Q,K63Q,R67Q / LC-wt) (antibody, human IgG1, kappa)
heavy: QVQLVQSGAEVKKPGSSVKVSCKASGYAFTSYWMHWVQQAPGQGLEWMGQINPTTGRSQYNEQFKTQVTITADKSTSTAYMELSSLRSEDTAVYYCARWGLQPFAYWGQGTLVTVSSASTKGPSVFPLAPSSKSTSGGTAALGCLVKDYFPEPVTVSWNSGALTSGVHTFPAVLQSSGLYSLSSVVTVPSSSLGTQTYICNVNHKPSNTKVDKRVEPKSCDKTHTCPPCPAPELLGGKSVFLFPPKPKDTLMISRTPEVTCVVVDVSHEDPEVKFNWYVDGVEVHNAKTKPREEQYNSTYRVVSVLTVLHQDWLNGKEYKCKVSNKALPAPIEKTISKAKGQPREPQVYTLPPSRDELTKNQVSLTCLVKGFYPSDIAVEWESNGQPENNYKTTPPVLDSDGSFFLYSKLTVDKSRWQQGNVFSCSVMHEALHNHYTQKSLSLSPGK
light: DIQMTQSPSFLSASVGDRVTITCKASQDVSTAVAWYQQKPGKAPKLLIYSASYRYTGVPSRFSGSGSGTDFTLTISSLQPEDFATYYCQQHYSTPWTFGGGTKVEIKRTVAAPSVFIFPPSDEQLKSGTASVVCLLNNFYPREAKVQWKVDNALQSGNSQESVTEQDSKDSTYSLSSTLTLSKADYEKHKVYACEVTHQGLSSPVTKSFNRGEC
notes: IgG1-P238K; also called HC8/LC1
B6: M3 (HC-K12Q,K13Q,K23Q / LC-wt) (antibody, human IgG1, kappa)
heavy: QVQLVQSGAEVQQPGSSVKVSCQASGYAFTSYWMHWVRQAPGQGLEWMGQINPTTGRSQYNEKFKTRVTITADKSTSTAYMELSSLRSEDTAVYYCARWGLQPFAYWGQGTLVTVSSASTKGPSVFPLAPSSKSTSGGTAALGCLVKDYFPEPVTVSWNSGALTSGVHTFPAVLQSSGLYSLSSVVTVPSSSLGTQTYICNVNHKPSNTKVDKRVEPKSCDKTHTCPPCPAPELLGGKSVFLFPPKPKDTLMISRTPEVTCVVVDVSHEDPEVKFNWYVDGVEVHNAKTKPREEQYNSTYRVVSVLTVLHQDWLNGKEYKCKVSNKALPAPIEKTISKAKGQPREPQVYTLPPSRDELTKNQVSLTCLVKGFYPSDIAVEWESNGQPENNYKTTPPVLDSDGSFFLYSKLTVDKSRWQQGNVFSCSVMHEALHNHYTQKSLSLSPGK
light: DIQMTQSPSFLSASVGDRVTITCKASQDVSTAVAWYQQKPGKAPKLLIYSASYRYTGVPSRFSGSGSGTDFTLTISSLQPEDFATYYCQQHYSTPWTFGGGTKVEIKRTVAAPSVFIFPPSDEQLKSGTASVVCLLNNFYPREAKVQWKVDNALQSGNSQESVTEQDSKDSTYSLSSTLTLSKADYEKHKVYACEVTHQGLSSPVTKSFNRGEC
notes: IgG1-P238K; also called HC3/LC1
B7: M16 (HC-K63Q / LC-wt) (antibody, human IgG1, kappa)
heavy: not shown
light: DIQMTQSPSFLSASVGDRVTITCKASQDVSTAVAWYQQKPGKAPKLLIYSASYRYTGVPSRFSGSGSGTDFTLTISSLQPEDFATYYCQQHYSTPWTFGGGTKVEIKRTVAAPSVFIFPPSDEQLKSGTASVVCLLNNFYPREAKVQWKVDNALQSGNSQESVTEQDSKDSTYSLSSTLTLSKADYEKHKVYACEVTHQGLSSPVTKSFNRGEC
notes: IgG1-P238K; also called HC16/LC1
B8: M11 (HC-R57E / LC-wt) (antibody, human IgG1, kappa)
heavy: not shown
light: DIQMTQSPSFLSASVGDRVTITCKASQDVSTAVAWYQQKPGKAPKLLIYSASYRYTGVPSRFSGSGSGTDFTLTISSLQPEDFATYYCQQHYSTPWTFGGGTKVEIKRTVAAPSVFIFPPSDEQLKSGTASVVCLLNNFYPREAKVQWKVDNALQSGNSQESVTEQDSKDSTYSLSSTLTLSKADYEKHKVYACEVTHQGLSSPVTKSFNRGEC
notes: IgG1-P238K; also called HC11/LC1
B9: M12 (HC-R57E,K74Q / LC-wt) (antibody, human IgG1, kappa)
heavy: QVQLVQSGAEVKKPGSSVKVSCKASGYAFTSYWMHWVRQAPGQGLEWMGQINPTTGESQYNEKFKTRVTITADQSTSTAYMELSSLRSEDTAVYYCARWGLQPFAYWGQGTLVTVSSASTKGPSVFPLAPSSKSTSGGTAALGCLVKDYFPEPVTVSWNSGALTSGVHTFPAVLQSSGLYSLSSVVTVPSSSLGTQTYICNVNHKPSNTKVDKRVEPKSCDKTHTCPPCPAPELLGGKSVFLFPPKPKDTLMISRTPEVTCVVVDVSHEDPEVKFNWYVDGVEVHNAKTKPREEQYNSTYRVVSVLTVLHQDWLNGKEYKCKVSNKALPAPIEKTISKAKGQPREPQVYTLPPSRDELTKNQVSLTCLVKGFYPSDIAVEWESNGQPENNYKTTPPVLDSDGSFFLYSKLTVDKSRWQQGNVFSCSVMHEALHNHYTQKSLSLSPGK
light: DIQMTQSPSFLSASVGDRVTITCKASQDVSTAVAWYQQKPGKAPKLLIYSASYRYTGVPSRFSGSGSGTDFTLTISSLQPEDFATYYCQQHYSTPWTFGGGTKVEIKRTVAAPSVFIFPPSDEQLKSGTASVVCLLNNFYPREAKVQWKVDNALQSGNSQESVTEQDSKDSTYSLSSTLTLSKADYEKHKVYACEVTHQGLSSPVTKSFNRGEC
notes: IgG1-P238K; also called HC12/LC1
B10: M5 (HC-K12E,K13Q,K23E / LC-wt) (antibody, human IgG1, kappa)
heavy: not shown
light: DIQMTQSPSFLSASVGDRVTITCKASQDVSTAVAWYQQKPGKAPKLLIYSASYRYTGVPSRFSGSGSGTDFTLTISSLQPEDFATYYCQQHYSTPWTFGGGTKVEIKRTVAAPSVFIFPPSDEQLKSGTASVVCLLNNFYPREAKVQWKVDNALQSGNSQESVTEQDSKDSTYSLSSTLTLSKADYEKHKVYACEVTHQGLSSPVTKSFNRGEC
notes: IgG1-P238K; also called HC5/LC1
B11: M2 (HC-K12Q,K13Q / LC-wt) (antibody, human IgG1, kappa)
heavy: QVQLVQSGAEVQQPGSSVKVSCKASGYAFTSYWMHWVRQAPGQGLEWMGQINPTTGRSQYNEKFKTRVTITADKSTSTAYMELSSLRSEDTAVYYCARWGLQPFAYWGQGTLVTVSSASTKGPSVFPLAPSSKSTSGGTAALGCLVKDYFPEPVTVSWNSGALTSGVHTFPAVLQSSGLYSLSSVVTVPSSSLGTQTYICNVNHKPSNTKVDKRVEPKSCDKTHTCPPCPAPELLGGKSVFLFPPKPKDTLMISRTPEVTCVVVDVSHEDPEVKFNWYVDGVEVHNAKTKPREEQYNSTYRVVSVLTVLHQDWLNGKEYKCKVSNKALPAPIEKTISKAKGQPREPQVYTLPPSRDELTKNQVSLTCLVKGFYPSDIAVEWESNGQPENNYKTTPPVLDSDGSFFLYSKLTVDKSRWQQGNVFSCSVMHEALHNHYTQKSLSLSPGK
light: DIQMTQSPSFLSASVGDRVTITCKASQDVSTAVAWYQQKPGKAPKLLIYSASYRYTGVPSRFSGSGSGTDFTLTISSLQPEDFATYYCQQHYSTPWTFGGGTKVEIKRTVAAPSVFIFPPSDEQLKSGTASVVCLLNNFYPREAKVQWKVDNALQSGNSQESVTEQDSKDSTYSLSSTLTLSKADYEKHKVYACEVTHQGLSSPVTKSFNRGEC
notes: IgG1-P238K; also called HC2/LC1
B12: M7 (HC-K23E / LC-wt) (antibody, human IgG1, kappa)
heavy: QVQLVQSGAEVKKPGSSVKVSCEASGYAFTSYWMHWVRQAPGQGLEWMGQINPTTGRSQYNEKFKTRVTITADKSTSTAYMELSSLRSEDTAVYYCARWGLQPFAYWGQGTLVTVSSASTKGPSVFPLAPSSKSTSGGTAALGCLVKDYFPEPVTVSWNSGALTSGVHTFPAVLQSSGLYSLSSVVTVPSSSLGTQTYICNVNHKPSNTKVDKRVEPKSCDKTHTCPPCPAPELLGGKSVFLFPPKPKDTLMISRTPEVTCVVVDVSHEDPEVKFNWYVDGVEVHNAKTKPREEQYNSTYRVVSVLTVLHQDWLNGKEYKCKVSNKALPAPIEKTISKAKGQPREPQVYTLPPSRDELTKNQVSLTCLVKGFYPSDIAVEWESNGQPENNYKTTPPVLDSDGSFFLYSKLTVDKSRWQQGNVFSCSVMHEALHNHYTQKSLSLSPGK
light: DIQMTQSPSFLSASVGDRVTITCKASQDVSTAVAWYQQKPGKAPKLLIYSASYRYTGVPSRFSGSGSGTDFTLTISSLQPEDFATYYCQQHYSTPWTFGGGTKVEIKRTVAAPSVFIFPPSDEQLKSGTASVVCLLNNFYPREAKVQWKVDNALQSGNSQESVTEQDSKDSTYSLSSTLTLSKADYEKHKVYACEVTHQGLSSPVTKSFNRGEC
notes: IgG1-P238K; also called HC7/LC1
B13: M6 (HC-K12V,K19S,K23A / LC-wt) (antibody, human IgG1, kappa)
heavy: not shown
light: DIQMTQSPSFLSASVGDRVTITCKASQDVSTAVAWYQQKPGKAPKLLIYSASYRYTGVPSRFSGSGSGTDFTLTISSLQPEDFATYYCQQHYSTPWTFGGGTKVEIKRTVAAPSVFIFPPSDEQLKSGTASVVCLLNNFYPREAKVQWKVDNALQSGNSQESVTEQDSKDSTYSLSSTLTLSKADYEKHKVYACEVTHQGLSSPVTKSFNRGEC
notes: IgG1-P238K; also called HC6/LC1
B14: M20 (HC-K12E / LC-K45Q) (antibody, human IgG1, kappa)
heavy: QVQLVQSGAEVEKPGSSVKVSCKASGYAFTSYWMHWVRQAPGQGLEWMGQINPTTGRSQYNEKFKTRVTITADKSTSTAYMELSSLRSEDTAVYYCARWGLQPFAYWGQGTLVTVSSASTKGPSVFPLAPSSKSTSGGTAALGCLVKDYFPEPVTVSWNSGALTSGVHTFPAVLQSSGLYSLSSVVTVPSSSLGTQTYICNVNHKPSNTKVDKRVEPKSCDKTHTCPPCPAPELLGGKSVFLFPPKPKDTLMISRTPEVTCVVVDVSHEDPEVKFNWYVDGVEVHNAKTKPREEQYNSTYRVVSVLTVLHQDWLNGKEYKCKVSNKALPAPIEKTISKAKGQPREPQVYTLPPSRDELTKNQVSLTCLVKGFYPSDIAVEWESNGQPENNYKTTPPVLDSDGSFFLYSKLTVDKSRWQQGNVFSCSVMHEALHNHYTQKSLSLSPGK
light: DIQMTQSPSFLSASVGDRVTITCKASQDVSTAVAWYQQKPGKAPQLLIYSASYRYTGVPSRFSGSGSGTDFTLTISSLQPEDFATYYCQQHYSTPWTFGGGTKVEIKRTVAAPSVFIFPPSDEQLKSGTASVVCLLNNFYPREAKVQWKVDNALQSGNSQESVTEQDSKDSTYSLSSTLTLSKADYEKHKVYACEVTHQGLSSPVTKSFNRGEC
notes: IgG1-P238K; also called HC4/LC2
B15: M9 (HC-K63Q,R67E / LC-wt) (antibody, human IgG1, kappa)
heavy: not shown
light: DIQMTQSPSFLSASVGDRVTITCKASQDVSTAVAWYQQKPGKAPKLLIYSASYRYTGVPSRFSGSGSGTDFTLTISSLQPEDFATYYCQQHYSTPWTFGGGTKVEIKRTVAAPSVFIFPPSDEQLKSGTASVVCLLNNFYPREAKVQWKVDNALQSGNSQESVTEQDSKDSTYSLSSTLTLSKADYEKHKVYACEVTHQGLSSPVTKSFNRGEC
notes: IgG1-P238K; also called HC9/LC1
B16: M15 (HC-R67Q / LC-wt) (antibody, human IgG1, kappa)
heavy: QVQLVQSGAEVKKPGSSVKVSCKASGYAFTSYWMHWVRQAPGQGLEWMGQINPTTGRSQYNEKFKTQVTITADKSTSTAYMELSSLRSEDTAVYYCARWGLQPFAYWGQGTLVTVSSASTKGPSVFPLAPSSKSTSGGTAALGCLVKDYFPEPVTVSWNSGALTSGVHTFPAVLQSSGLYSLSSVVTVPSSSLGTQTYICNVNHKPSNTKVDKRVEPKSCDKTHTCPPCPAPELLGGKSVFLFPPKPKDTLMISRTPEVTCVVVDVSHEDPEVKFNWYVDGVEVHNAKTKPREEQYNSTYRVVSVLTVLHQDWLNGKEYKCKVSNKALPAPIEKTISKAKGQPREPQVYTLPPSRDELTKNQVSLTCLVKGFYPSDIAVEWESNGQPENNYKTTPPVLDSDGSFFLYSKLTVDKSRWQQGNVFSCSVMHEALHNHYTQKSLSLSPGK
light: DIQMTQSPSFLSASVGDRVTITCKASQDVSTAVAWYQQKPGKAPKLLIYSASYRYTGVPSRFSGSGSGTDFTLTISSLQPEDFATYYCQQHYSTPWTFGGGTKVEIKRTVAAPSVFIFPPSDEQLKSGTASVVCLLNNFYPREAKVQWKVDNALQSGNSQESVTEQDSKDSTYSLSSTLTLSKADYEKHKVYACEVTHQGLSSPVTKSFNRGEC
notes: IgG1-P238K; also called HC15/LC1

For the assay, the target named is T1, soluble human CD40 extracellular domain (human, UniProt P25942 21-193).
T1 construct: Produced in house; also called hCD40; soluble hCD40 extracellular domain
T1 sequence (P25942 21-193 limits assumed): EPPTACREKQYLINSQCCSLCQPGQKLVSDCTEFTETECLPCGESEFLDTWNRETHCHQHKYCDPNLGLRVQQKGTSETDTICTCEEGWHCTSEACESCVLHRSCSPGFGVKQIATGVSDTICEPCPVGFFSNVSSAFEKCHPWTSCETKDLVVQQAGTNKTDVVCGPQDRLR
Briefly: SPR, Ab captured from supernatant on protein A, hCD40 ECD analyte. On the procedure:
The titer data (Table 21) were used to normalize the antibody concentration in each supernatant to 3 μg/ml, and these antibodies were captured out of the supernatants on a protein A CMS Series S sensor chip (GE Healthcare), and tested for binding to two concentrations (5 nM and 50 nM) of soluble hCD40 extracellular domain.
CD40 binding SPR of antibody supernatants: Surface plasmon resonance (SPR) studies were conducted on a BIAcore™ T200 instrument (GE Healthcare, Chicago Ill.). A Series S Protein A sensor chip (GE Healthcare, Chicago Ill.) was equilibrated with SPR running buffer of 10 mM NaPO₄, 130 mM NaCl, 0.05% tween 20, (PBS-T) pH 7.2 at 25° C. The 96 antibody supernatants were normalized to a concentration of 3 μg/ml by diluting with PBS-T using a PerkinElmer JANUS® G3 system (PerkinElmer, Akron, Ohio). After priming the system, the 3 μg/ml antibody samples were captured on the protein A surface for 30 s at 10 μl/min Binding of 50 nM and 500 nM human CD40 extracellular domain (produced in house) was evaluated using association time of 180 s at 30 μl/min, followed by a dissociation time of 180 s at 30 μl/min Regeneration between cycles was accomplished using two 15 s injections of 10 mM glycine pH 1.5. […] Data were analyzed using BIAcore™ T200 evaluation software by fitting to a 1:1 Langmuir model.
Background: Surface plasmon resonance follows binding to a sensor surface in real time, without labels.
B1 displayed a Kd of 4.1 nM. Take B2: the Kd was 3.8 nM. The figure for B3 is 3.4 nM; for B4 it is 4 nM.

Consider B5, for which the affinity, expressed as Kd, was 3.4 nM.

For the molecule B6, the Kd was 3.7 nM.

As to B7, the Kd is 4.1 nM.

Consider B8, for which the Kd is 10.2 nM. The figure for B9 is 14 nM. With B10, the Kd came out at 3.8 nM. As for B11, the Kd came out at 3.7 nM. As for B12, the figure is 4.5 nM; as for B13, 3.8 nM.

The molecule B14 registered a Kd of 3.3 nM.

Molecule B15 showed a dissociation constant (Kd) of 3.2 nM. For the molecule B16, binding was put at a Kd of 3.4 nM.

Usually Kd stands for the concentration at which binding is half-saturated.
